Results reported in the Human Domainome abundance scans (Beltran et al. 2025).
± gives the uncertainty stated by the source.

B1: CD2-associated protein, residues 109 to 169; numbered along this chain, Q9Y5K6 (parent)
chain: KKRQCKVLFEYIPQNEDELELKVGDIIDINEEVEEGWWSGTLNNKLGLFPSNFVKELEVTD

Variants of: B1
Assay: abundance fitness (aPCA) (normalised: wild type 0, dead -1); higher = more abundant; growth selection in yeast, the domain comes from the species named
Conditions: Homo sapiens

KKRQCKVLFEYIPQNEDELELKVGDIIDINEEVEEMWWSGTLNNKLGLFPSNFVKELEVTD [G36M] and KKRQCKVLFEYIPQNEDELELKVGDIIDINEEVEEKWWSGTLNNKLGLFPSNFVKELEVTD [G36K] are within error of each other in abundance fitness: -0.201 ± 0.12 for the first, -0.278 ± 0.21 for the second.

KKRQCKVLFEYIPQNEDELELKVGDIIDINEEVEEQWWSGTLNNKLGLFPSNFVKELEVTD [G36Q] and KKRQCKVLFEYIPQNEDELELKVGDIIDINEEVEEPWWSGTLNNKLGLFPSNFVKELEVTD [G36P] are within error of each other in abundance fitness: -0.457 ± 0.26 for the first, -0.939 ± 0.25 for the second.

Going from KKRQCKVLFEYIPQNEDELELKVGDIIDINEEVEEVWWSGTLNNKLGLFPSNFVKELEVTD [G36V] to KKRQCKVLFEYIPQNEDELELKVGDIIDINEEVEEDWWSGTLNNKLGLFPSNFVKELEVTD [G36D], the abundance fitness rises from -0.651 ± 0.12 to -0.178 ± 0.079.

Compared with KKRQCKVLFEYIPQNEDELELKVGDIIDINEEVEEIWWSGTLNNKLGLFPSNFVKELEVTD [G36I], KKRQCKVLFEYIPQNEDELELKVGDIIDINEEVEERWWSGTLNNKLGLFPSNFVKELEVTD [G36R] is higher in abundance fitness: -0.605 ± 0.11 for the first, -0.323 ± 0.09 for the second.

KKRQCKVLFEYIPQNEDELELKVGDIIDINEEVEEEWWSGTLNNKLGLFPSNFVKELEVTD [G36E] and KKRQCKVLFEYIPQNEDELELKVGDIIDINEEVEENWWSGTLNNKLGLFPSNFVKELEVTD [G36N] are within error of each other in abundance fitness: 0.041 ± 0.23 for the first, -0.004 ± 0.085 for the second.

KKRQCKVLFEYIPQNEDELELKVGDIIDINEEVEECWWSGTLNNKLGLFPSNFVKELEVTD [G36C] and KKRQCKVLFEYIPQNEDELELKVGDIIDINEEVEEHWWSGTLNNKLGLFPSNFVKELEVTD [G36H] are within error of each other in abundance fitness: -0.467 ± 0.089 for the first, -0.375 ± 0.09 for the second.

KKRQCKVLFEYIPQNEDELELKVGDIIDINEEVEEAWWSGTLNNKLGLFPSNFVKELEVTD [G36A] and KKRQCKVLFEYIPQNEDELELKVGDIIDINEEVEEYWWSGTLNNKLGLFPSNFVKELEVTD [G36Y] are within error of each other in abundance fitness: -0.357 ± 0.087 for the first, -0.276 ± 0.076 for the second.

KKRQCKVLFEYIPQNEDELELKVGDIIDINEEVEEWWWSGTLNNKLGLFPSNFVKELEVTD [G36W] and KKRQCKVLFEYIPQNEDELELKVGDIIDINEEVIEGWWSGTLNNKLGLFPSNFVKELEVTD [E34I] are within error of each other in abundance fitness: -0.59 ± 0.21 for the first, -0.247 ± 0.21 for the second.

KKRQCKVLFEYIPQNEDELELKVGDIIDINEEVAEGWWSGTLNNKLGLFPSNFVKELEVTD [E34A] and KKRQCKVLFEYIPQNEDELELKVGDIIDINEEVWEGWWSGTLNNKLGLFPSNFVKELEVTD [E34W] are within error of each other in abundance fitness: -0.167 ± 0.15 for the first, -0.347 ± 0.15 for the second.

KKRQCKVLFEYIPQNEDELELKVGDIIDINEEVYEGWWSGTLNNKLGLFPSNFVKELEVTD [E34Y] and KKRQCKVLFEYIPQNEDELELKVGDIIDINEEVVEGWWSGTLNNKLGLFPSNFVKELEVTD [E34V] are within error of each other in abundance fitness: -0.126 ± 0.22 for the first, -0.05 ± 0.13 for the second.

KKRQCKVLFEYIPQNEDELELKVGDIIDINEEVQEGWWSGTLNNKLGLFPSNFVKELEVTD [E34Q] and KKRQCKVLFEYIPQNEDELELKVGDIIDINEEVDEGWWSGTLNNKLGLFPSNFVKELEVTD [E34D] are within error of each other in abundance fitness: -0.147 ± 0.23 for the first, -0.3 ± 0.15 for the second.

First: KKRQCKVLFEYIPQNEDELELKVGDIIDINEEVFEGWWSGTLNNKLGLFPSNFVKELEVTD [E34F]
Second: KKRQCKVLFEYIPQNEDELELKVGDIIDINEEVKEGWWSGTLNNKLGLFPSNFVKELEVTD [E34K]
The abundance fitness of the first is lower: -0.393 ± 0.3 for the first, 0.299 ± 0.3 for the second.

KKRQCKVLFEYIPQNEDELELKVGDIIDINEEVHEGWWSGTLNNKLGLFPSNFVKELEVTD [E34H] and KKRQCKVLFEYIPQNEDELELKVGDIIDINEEVNEGWWSGTLNNKLGLFPSNFVKELEVTD [E34N] are within error of each other in abundance fitness: 0.179 ± 0.14 for the first, -0.337 ± 0.44 for the second.

KKRQCKVLFEYIPQNEDELELKVGDIIDINEEVGEGWWSGTLNNKLGLFPSNFVKELEVTD [E34G] and KKRQCKVLFEYIPQNEDELELKVGDIIDINEEVTEGWWSGTLNNKLGLFPSNFVKELEVTD [E34T] are within error of each other in abundance fitness: -0.067 ± 0.16 for the first, 0.008 ± 0.11 for the second.

First: KKRQCKVLFEYIPQNEDELELKVGDIIDINEEVLEGWWSGTLNNKLGLFPSNFVKELEVTD [E34L]
Second: KKRQCKVLFEYIPQNEDELELKVGDIIDINEEVMEGWWSGTLNNKLGLFPSNFVKELEVTD [E34M]
The abundance fitness of the first is lower: -0.611 ± 0.28 for the first, -0.045 ± 0.19 for the second.

KKRQCKVLFEYIPQNEDELELKVGDIIDINEEVSEGWWSGTLNNKLGLFPSNFVKELEVTD [E34S] and KKRQCKVLFEYIPQNEDELELKVGDIIDINEIVEEGWWSGTLNNKLGLFPSNFVKELEVTD [E32I] are within error of each other in abundance fitness: 0.016 ± 0.11 for the first, -0.28 ± 0.41 for the second.

KKRQCKVLFEYIPQNEDELELKVGDIIDINEKVEEGWWSGTLNNKLGLFPSNFVKELEVTD [E32K] and KKRQCKVLFEYIPQNEDELELKVGDIIDINEVVEEGWWSGTLNNKLGLFPSNFVKELEVTD [E32V] are within error of each other in abundance fitness: -0.188 ± 0.2 for the first, -0.155 ± 0.3 for the second.

KKRQCKVLFEYIPQNEDELELKVGDIIDINETVEEGWWSGTLNNKLGLFPSNFVKELEVTD [E32T] and KKRQCKVLFEYIPQNEDELELKVGDIIDINERVEEGWWSGTLNNKLGLFPSNFVKELEVTD [E32R] are within error of each other in abundance fitness: -0.094 ± 0.18 for the first, -0.407 ± 0.25 for the second.

Going from KKRQCKVLFEYIPQNEDELELKVGDIIDINEGVEEGWWSGTLNNKLGLFPSNFVKELEVTD [E32G] to KKRQCKVLFEYIPQNEDELELKVGDIIDINEMVEEGWWSGTLNNKLGLFPSNFVKELEVTD [E32M], the abundance fitness rises from -0.188 ± 0.17 to 0.178 ± 0.19.

First: KKRQCKVLFEYIPQNEDELELKVGDIIDINESVEEGWWSGTLNNKLGLFPSNFVKELEVTD [E32S]
Second: KKRQCKVLFEYIPQNEDELELKVGDIIDINELVEEGWWSGTLNNKLGLFPSNFVKELEVTD [E32L]
The abundance fitness of the first is higher: -0.091 ± 0.16 for the first, -0.689 ± 0.42 for the second.

KKRQCKVLFEYIPQNEDELELKVGDIIDINEWVEEGWWSGTLNNKLGLFPSNFVKELEVTD [E32W] and KKRQCKVLFEYIPQNEDELELKVGDIIDINECVEEGWWSGTLNNKLGLFPSNFVKELEVTD [E32C] are within error of each other in abundance fitness: -0.374 ± 0.31 for the first, -0.274 ± 0.3 for the second.

In the case of KKRQCKVLFEYIPQNEDELELKVGDIIDINEEVEMGWWSGTLNNKLGLFPSNFVKELEVTD [E35M], the abundance fitness is reported as -0.169 ± 0.25.
